The values below come from patent publication US20260092121A1 (TALEM THERAPEUTICS, published 2026).

Broadly, the koff is a measure of how fast the partners let go of each other. A low value points to slow dissociation.

B1: anti-TrkB clone 3E04 (antibody, V domains shown)
VH: EVQLVQSGAEVKKPGESLKISCKGSGYSFTSYWIGWVRQMPGKGLEWMGIIYPGDSDTRYSPSFQGQVTISADKSISTAYLQWSSLKASDTAMYYCASRLLFGDDAFDIWGQGTMVTVSS
VL: SYVLTQPPSVSVSPGQTATITCSGDKLGDEYVSWYQQKPGQSPVLVIYQDSKRPSGIPERFSGSNSGNTATLTISGAQAVDEADYYCQAWDSNAGAFGTGTKLTVL
notes: full-length IgG
B2: anti-TrkB clone 5C07 (antibody, V domains shown)
VH: QVQLVQSGAEVKKPGESLKISCKGFGYSFTNYWIGWVRQMPGKGLEWMGIIYPGDSDTRYSPSFQGQVTISADKSITTAYLQWSSLKASDTAMYYCASHTKDGTWDIWGQGTMVTVSS
VL: QAGLTQPPSVSVSPGQTASITCSGERLGDKYVSWYQQKPGQSPVLVIYQDDKRPSGVPERFSGSNSGNTATLNISGTQPMDEADYYCQAWDSSTSLYVFGTGTKLTVL
notes: full-length IgG
B3: anti-TrkB clone 3B09 (antibody, V domains shown)
VH: EVQLVQSGAEVKKPGESLKISCKGSGYSFTSYWIGWVRQMPGKGLEWMGIIYPGDSDTRYSPSFQGQVTISADKSISTAYLQWSSLKASDTAMYYCATPMEDGMDVWGQGTTVTVSS
VL: QAGLTQPPSVSVSPGQTVTITCSADNLGDKYTSWYQQRPGQSPVLVIYQDTKRPSGIPARFSGSNSGNTATLTISGTQAMDEADYYCQAWDSSTGVFGTGTKVTVL
notes: full-length IgG
B4: anti-TrkB clone 3F06 (antibody, V domains shown)
VH: QMQLVQSGAEVKKPGESLKISCKGSGYSFSTNWIGWVRQMPGKGLEWMGIIYPGDSDTRYSPSFQGQVTISADKSISTAYLQWSSLKASDTAMYYCARFYDSSGNDYWGQGTLVTVSS
VL: QSVLTQPPSVSVSPGQTASITCSGDKLGDKYASWYQQKPGQSPVLVIFQDNKRPSGIPERFSGSNSGNTATLTISGTQAMDEADYYCQTWDSSTAIFGGGTKLTVL
notes: full-length IgG
B5: anti-TrkB clone 3F09 (antibody, V domains shown)
VH: EVQLVQSGAEVKKPGESLKISCKGSGYSFTSYWIGWVRQMPGKGLEWMGIIYPGDSDTRYSPSFQGQVTISADKSISTAYLQWSSLKASDTAMYYCVVRPAAAGTRIDYWGQGTLVTVSS
VL: B4 VL with V46I, F48Y, T89A, A95Y, I96V, G99T
notes: full-length IgG
B6: anti-TrkB clone 3H11 (antibody, V domains shown)
VH: QVQLQQSGPGLVKPSQTLSLTCAISGDSVSSNSAVWNWIRQSPSRGLEWLGRTYYRSKWYTDFAVSVKSRITINPDTSKNQFSLQLNSVTPEDTAVYYCARGRNGMDVWGQGTMVTVST
VL: LPVLTQPPSASGTPGQRVTISCSGSSSNIGHKYVYWYQQLPGAAPKLLIYRNNQRPSGVPDRFSASKSGTSASLAISGLRSEDEADYYCATWDDSLNGVVFGGGTKVTVL
notes: full-length IgG
B7: anti-TrkB clone 3C02 (antibody, V domains shown)
VH: QVQLVQSGAEVKKPGESLKISCKGSGYSFTSYWIGWVRQMPGKGLEWMGIIYPGDSDTRYSPSFQGQVTISADKSISTAYLQWSSLKASDTAMYYCARGGPPDYWGQGTLVTVSS
VL: not shown
notes: full-length IgG
B8: anti-TrkB clone 3A05 (antibody, V domains shown)
VH: QVQLVESGAEVKKPGESLKISCKGSGYSFTTYWIAWVRQMPGKGLEWMGIIYPGDSDTRYSPSFQGQVTISADKSISTAYLQWSSLKASDTAMYYCARLGGGMDVWGQGTMVTVSS
VL: QAGLTQPPSASGTPGQRVTISCSGSSSNIGSNTVSWYRQIPGTAPKFLLYGNNQRPSGVPARFSGSKSGTSASLAVDGLQSDDEADYYCAAWDDSLSGYVFGTGTKLTVL
notes: full-length IgG
B9: anti-TrkB clone 6B04 (antibody, V domains shown)
VH: B8 VH with E6Q, T31S, A35G, M93I, G102A, M111L
VL: SYELMQPPSLSVSPGQTASITCSGDKLGDKYVSWYQQRPGQSPVLVMYQDKKRPSGIPKRFSGSNSGNTATLTISGTQAMDEADYYCAAWDDSLNGYYVFGTGTQLTVL
notes: full-length IgG
B10: anti-TrkB clone 6F04 (antibody, V domains shown)
VH: B8 VH with Q1E, E6Q, T31S, A35G, L99G, G100S, M103Y, V105Y, M111L
VL: QSVLTQPPSVSVSPGQTASITCSGNKLGDKFVSWYHQRPGQSPVLVIYEDNKRPSGIPERFSGSNSGNTATLTISGTQAMDEGDYYCQTWDVSSYVFGTGTKVTVL
notes: full-length IgG
B11: anti-TrkB clone 3B04 (antibody, V domains shown)
VH: B8 VH with E6Q, S17P, T30P, S84G, K87R, L99G, G101S, M103L, V105Y, M111L
VL: SYELMQPPSVSVSPGQTASITCSGDKLGTKYVSWYQQKPGQSPVLVIYQDSKRPSGIPERFSGSNSGNTATLTISGTQAMDEADYYCQAWDSSTVVFGGGTKLTVL
notes: full-length IgG
B12: anti-TrkB clone 3A06 (antibody, V domains shown)
VH: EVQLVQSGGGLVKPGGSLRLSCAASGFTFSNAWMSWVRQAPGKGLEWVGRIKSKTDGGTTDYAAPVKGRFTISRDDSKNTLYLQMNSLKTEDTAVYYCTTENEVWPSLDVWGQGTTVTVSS
VL: QSVLTQPPSVSVSPGQTASITCSGDKLGNKYASWYRQKPGQSPVLVIYQDTKRPSGIPERFSGSNSGNTATLTISGTQAMDEGDYYCQAWDSSTAVVFGGGTKLTVL
notes: full-length IgG
B13: anti-TrkB clone 4F03 (antibody, V domains shown)
VH: EVQLVQSGAEVKKPGESLKISCKGSGYSFTSYWIGWVRQMPGKGLEWMGIIYPGDSDTRYSPSFQGQVTISADKSISTAYLQWSSLKASDTAMYYCASWGMDVWGQGTLVTVSS
VL: QPVLTQPPSASGTPGQRVTISCSGSSSNIGTHTVNWYQQFPGTAPKLLMYSTFQRPSGVPDRFSGSKSGTSASLAISGLQSEDEADYYCAAWDDSLNGPVFGGGTQLTVL
notes: full-length IgG
B14: anti-TrkB clone 1E07 (antibody, V domains shown)
VH: QVQLVQSGAEVKKPGESLRISCKGSGYSFTNNWINWVRQMPGKGLEWMGRIDPDDSYTNYSPSFQGHVIFSADKSSNTVYLQWSSLEASDTAMYYCARRAQGGGGYDYWGQGTLVTVSS
VL: QSVLTQPPSVSGAPGQRVTISCTGSSSNIGAGFNVHWYQQVAGLAPKLLIHDNINRPSGVPDRFSGSKSGASASLTITGLQAEDEADYYCQSYDSSLSGWFAFGTGTKVTVL
notes: full-length IgG

Positions count from the first letter of the chain named.

human TrkA-His, sequence (P04629 33-417 limits assumed): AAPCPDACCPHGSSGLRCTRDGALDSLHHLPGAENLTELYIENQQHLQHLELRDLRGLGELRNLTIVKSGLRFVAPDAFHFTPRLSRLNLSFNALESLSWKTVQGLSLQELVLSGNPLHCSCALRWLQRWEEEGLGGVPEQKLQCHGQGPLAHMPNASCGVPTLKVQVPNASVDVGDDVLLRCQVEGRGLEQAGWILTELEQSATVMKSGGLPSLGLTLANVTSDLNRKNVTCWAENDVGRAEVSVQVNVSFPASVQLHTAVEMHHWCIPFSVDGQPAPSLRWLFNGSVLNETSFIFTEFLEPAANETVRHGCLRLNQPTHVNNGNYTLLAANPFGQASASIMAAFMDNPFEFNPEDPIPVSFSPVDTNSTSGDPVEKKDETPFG

In one test the target is human TrkC-His (human, UniProt Q16288 32-429). The test is described as follows: ELISA.
Regarding B1, the binding result is on record as “no binding (tested: up to 10 µg/mL)”.

As to B2, the binding result is reported as “no binding (tested: up to 10 µg/mL)”.

On to B3, for which the binding result is reported as “no binding (tested: up to 10 µg/mL)”.

Turning to B4, the binding result is “no binding (tested: up to 10 µg/mL)”.

Consider B5, for which the binding result is listed as “no binding (tested: up to 10 µg/mL)”.

Consider B6, for which the binding result was “no binding (tested: up to 10 µg/mL)”.

For the molecule B7, the binding result is listed as “no binding (tested: up to 10 µg/mL)”.

With B8, the binding result is given as “no binding (tested: up to 10 µg/mL)”.

Consider B9, for which the binding result is “no binding (tested: up to 10 µg/mL)”.

On to B10, for which the binding result is recorded as “no binding (tested: up to 10 µg/mL)”.

For B11, the binding result is recorded as “no binding (tested: up to 10 µg/mL)”.

Take B12: the binding result is “no binding (tested: up to 10 µg/mL)”.

With B13, the binding result is “no binding (tested: up to 10 µg/mL)”.

B14: the binding result is recorded as “no binding (tested: up to 10 µg/mL)”.

A further test addresses human TrkA-His (human, UniProt P04629 33-417, limits assumed). The test is described as follows: ELISA.
Turning to B1, the binding result is on record as “no binding (tested: up to 10 µg/mL)”.

As for B2, the binding result was “no binding (tested: up to 10 µg/mL)”.

B3: the binding result is recorded as “no binding (tested: up to 10 µg/mL)”.

Turning to B4, the binding result is given as “no binding (tested: up to 10 µg/mL)”.

For the molecule B5, the binding result was “no binding (tested: up to 10 µg/mL)”.

Consider B6, for which the binding result is recorded as “no binding (tested: up to 10 µg/mL)”.

As for B7, the binding result was “no binding (tested: up to 10 µg/mL)”.

Turning to B8, the binding result is “no binding (tested: up to 10 µg/mL)”.

With B9, the binding result is listed as “no binding (tested: up to 10 µg/mL)”.

In the case of B10, the binding result was “no binding (tested: up to 10 µg/mL)”.

Regarding B11, the binding result is “no binding (tested: up to 10 µg/mL)”.

For B12, the binding result is “no binding (tested: up to 10 µg/mL)”.

Regarding B13, the binding result is on record as “no binding (tested: up to 10 µg/mL)”.

In the case of B14, the binding result was “no binding (tested: up to 10 µg/mL)”.

In the next test the target is TrkB in PathHunter eXpress TrkB Functional Assay cells (modified U2OS). Put plainly: cell-based or functional assay.
B1: the “TrkB activation (EC50)” value was found to be 0.11 µg/mL.

For the molecule B2, the “TrkB activation (EC50)” value was found to be 0.47 µg/mL.

For B3, the “TrkB activation (EC50)” value is 0.094 µg/mL.

Take B4: the “TrkB activation (EC50)” value came out at 0.14 µg/mL.

B5: the “TrkB activation (EC50)” value amounted to 0.053 µg/mL.

Consider B6, for which the “TrkB activation (EC50)” value stood at 0.02 µg/mL.

As for B7, the “TrkB activation (EC50)” value turned out to be 0.15 µg/mL.

For the molecule B8, the “TrkB activation (EC50)” value came out at 0.006 µg/mL.

With B9, the “TrkB activation (EC50)” value worked out at 0.039 µg/mL.

As to B10, the “TrkB activation (EC50)” value was 0.035 µg/mL.

Take B11: the “TrkB activation (EC50)” value was 0.1 µg/mL.

For the molecule B12, the “TrkB activation (EC50)” value is 0.15 µg/mL.

With B13, the “TrkB activation (EC50)” value is 0.041 µg/mL.

With B14, the “TrkB activation (EC50)” value was found to be 0.13 µg/mL.

The target of the next test is T1, human TrkB-His (human, UniProt Q16620 32-430).
T1 construct: in-house fusion of the TrkB ECD with poly-His, HEK293; also called huTrkB-His; hTrkB-His; not shown: poly-His tag
Put plainly: BLI off-rate, mAb captured.
For the molecule B1, the koff is 0.00534 s⁻¹.

Take B2: the koff was found to be 0.00457 s⁻¹.

For the molecule B3, the koff stood at 0.00472 s⁻¹.

In the case of B4, the koff worked out at 0.00479 s⁻¹.

Consider B5, for which the koff amounted to 0.00631 s⁻¹.

Molecule B6 displayed a koff of 0.0057 s⁻¹.

Regarding B7, the koff came out at 0.00494 s⁻¹.

In the case of B8, the koff worked out at 0.00435 s⁻¹.

The molecule B9 returned a koff of 0.00678 s⁻¹.

Molecule B10 had a koff of 0.00473 s⁻¹.

B11 gave an off-rate constant (koff) of 0.00802 s⁻¹.

The molecule B12 showed a koff of 0.00453 s⁻¹.

For the molecule B13, the koff amounted to 0.00639 s⁻¹.

B14: the koff is 0.00613 s⁻¹.

The target in a further test is T2, mouse TrkB-ECD-GST (mouse, UniProt P15209 32-429).
T2 construct: extracellular domain; in-house fusion, HEK293; also called mTrkB-ECD-GST; mTrkB (ELISA); not shown: glutathione S-transferase (GST) fusion part
The test is described as follows: ELISA. For orientation: ELISA stands for enzyme-linked immunosorbent assay.
Regarding B1, the binding result is “binds”.

As to B2, the binding result was “binds”.

For the molecule B3, the binding result is “binds”.

Regarding B4, the binding result is “binds”.

For the molecule B6, the binding result is recorded as “binds”.

Regarding B7, the binding result was “binds”.

As for B8, the binding result was “binds”.

Consider B9, for which the binding result is “binds”.

On to B10, for which the binding result is recorded as “binds”.

Consider B11, for which the binding result is reported as “binds”.

With B12, the binding result is given as “binds”.

As to B14, the binding result is on record as “binds”.
